Laboratory results: patent US7718413B2, “Glycosylation variants of BACE” (Elan Pharmaceuticals, Inc., priority 2003, dated 2010)
Where a chain is given by its changes, count along the chain named. Names and notes keep the numbering of the source. Values joined by “and” are separate entries in the source; they are usually repeats but may differ in a detail not shown here. Equal values may be shown once.

B1: delta 2, 3: BACE variant S174I and N223A (SEQ ID NO:3), made on the 452Flag soluble truncated BACE template (protein)
chain: ETDEEPEEPGRRGSFVEMVDNLRGKSGQGYYVEMTVGSPPQTLNILVDTGSSNFAVGAAPHPFLHRYYQRQLSSTYRDLRKGVYVPYTQGKWEGELGTDLVSIPHGPNVTVRANIAAITESDKFFINGINWEGILGLAYAEIARPDDSLEPFFDSLVKQTHVPNLFSLQLCGAGFPLAQSEVLASVGGSMIIGGIDHSLYTGSLWYTPIRREWYYEVIIVRVEINGQDLKMDCKEYNYDKSIVDSGTTNLRLPKKVFEAAVKSIKAASSTEKFPDGFWLGEQLVCWQAGTTPWNIFPVISLYLMGEVTNQSFRITILPQQYLRPVEDVATSQDDCYKFAISQSSTGTVMGAVIMEGFYVVFDRARKRIGFAVSACHVHDEFRTAAVEGPFVTLDMEDCGYNIPQTD
modifications: Flag tag; Human BACE with serine to isoleucine (S174I) and asparagine to alanine (N223A) mutations.
B2: delta 3: BACE variant N223A (SEQ ID NO:2), made on the 452Flag soluble truncated BACE template (protein)
chain: B1 chain with I129S
modifications: Flag tag; Human BACE with asparagine to alanine (N223A) mutation.
B3: wild type: fully glycosylated soluble BACE truncated after residue 451 with Flag sequence (protein)
chain: TQHGIRLPLRSGLGGAPLGLRLPRETDEEPEEPGRRGSFVEMVDNLRGKSGQGYYVEMTVGSPPQTLNILVDTGSSNFAVGAAPHPFLHRYYQRQLSSTYRDLRKGVYVPYTQGKWEGELGTDLVSIPHGPNVTVRANIAAITESDKFFINGSNWEGILGLAYAEIARPDDSLEPFFDSLVKQTHVPNLFSLQLCGAGFPLNQSEVLASVGGSMIIGGIDHSLYTGSLWYTPIRREWYYEVIIVRVEINGQDLKMDCKEYNYDKSIVDSGTTNLRLPKKVFEAAVKSIKAASSTEKFPDGFWLGEQLVCWQAGTTPWNIFPVISLYLMGEVTNQSFRITILPQQYLRPVEDVATSQDDCYKFAISQSSTGTVMGAVIMEGFYVVFDRARKRIGFAVSACHVHDEFRTAAVEGPFVTLDMEDCGYNIPQTD
modifications: left off: small tags and cut ends

These molecules were tested on MBP-C125Swe (assay: β-Secretase assay: cleavage of substrate MBP-C125Swe, ELISA read-out). Settings: group mean of 6 samples; 0.02 μL BACE, MBP-C125Swe 220 nM, one hour, 37° C., pH 4.5.
Type: biochemical
From the text: Peptide substrate MBP-C125Swe was used for all assays. MBP-C125Swe is a bacterial fusion protein containing maltose binding protein MBP fused to the C-terminal 125 amino acids of the Swedish variant (Lys670Asn, Met671Leu double mutation) of APP. Sinha et al (1999). The C-terminal 125 amino acids were cloned into the expression vector pMALc (New England Biolabs) and transfected into E. coli. The fusion proteins were induced and solubilized by sonication of the pelleted bacteria. The proteins were purified by affinity chromatography on amylose-agarose, made up to 3 M guanidine, and stored in 10 mM Tris, pH 7.5, 0.2% Triton X-100, and 0.15 M guanidine.
All digests were done with 0.02 μL BACE (Δ3, 0.69 μM; Δ2,3 0.77 μM; wild type 0.66 μM) at 37° C. in a total volume of 50 μL 0.06% Triton X-100 and 20 mM sodium acetate, pH 4.5. Samples were incubated with MBP-C125Swe substrate (10 μg/mL, 220 nM) for one hour. Digests were assayed in an ELISA assay, capturing with antibody to MBP and detecting with biotinylated Sw192, a neo-epitope specific antibody recognizing the free C-terminal leucine of the N-terminal product of β-secretase cleavage of the APPSwe sequence. See Seubert. P. et al. Nature 361:260-263 (1993), and Knops, J. et al. J. Biol. Chem. 270:2419-2422 (1995). Product was allowed to bind for 24 hours at 4° C., then quantitated with streptavidin-horse radish peroxidase. Biotinylated peptide corresponding to the N-terminal cleavage product was synthesized and used as a standard.
These values were converted from the above data by the following equation: nM product/hr (ng enzyme)×45 ng enzyme/pm enz× 1/220 nM substrate×⅓,660 sec/hr×50,000 nL/reaction.

Molecule | Cleavage Product
B1 | 109 pM and 108 pM
B2 | 119 pM and 126 pM
B3 | 85 pM and 90 pM

Same assay, conditions: group mean; 0.02 μL BACE, MBP-C125Swe 220 nM, one hour, 37° C., pH 4.5

Molecule | Activity | Substrate Conversion
B1 | 15,753 pM/h/ng enz and 15,662 pM/h/ng enz | 5.19% and 5.16%
B2 | 19,071 pM/h/ng enz and 20,173 pM/h/ng enz | 5.68% and 6.01%
B3 | 14,308 pM/h/ng enz and 15,177 pM/h/ng enz | 4.05% and 4.30%
